Test results: article PMC7090148 (2020)

B1: Mouse OFD1, wild type [mouse] / NTAP-tagged TRAPPC12 [mouse] (parent complex)
chain 1: MAQSNMPHKSDVLSQDELRKKLYQTFKDRGVLDTLQTQLRNQLIHELMHPVLSGEVKPPSISVEGSALLIGASNSLVADHLQRCGYEYSLSVFFPESGLAKEKIFTMQDLLQLIRINPSSSLYKSLISGFDKENKKGFLMSFLKELAEYYQAKESCDAETQTSTTFPSQVSLAEKFQLIDAQFADGFPHRSKLESLETKLNEYKKEVQHQLQVEMCHKLKYFREAEITKVKMEERRKYEKELAEFQNEFERTCQAKNEALISQEKNSLERIKKHREMESKEIYAQRQLLLNDIALLRGREAELKERIETFELTQKLQEEKIKSEAEALERREQNLKNIEDTYDQKLKTELLKYQLELKDDYITRTNKLLEEERKNKEKTIHLQEELTVINSKKEELSKSVKHMKEVELELESVKAQFLAISKQNHLLNEKVREMSDYSQLKEEKVELQAQNKLLKLQLEETRNENLRLLDRITQPPPELVIFQKELQKTEKAMELEHKDFETHRQALEKQLQSEIENSAQLRTQIAEYDASVKRLTVQVAELKSQLKQTQIALENEVYRNPKHSLIHSLSGLLLSGKMAPHSEDKSGDFLNVPLEQNKVIAGAVMSRVPPYVNTATEASSPESDFEFIASSTKAKVRELEQEAERLEKAFRTYYQRATQNPSTSPQPAKSPPSVNSVAALRSIASSSMDRPVSAEDRVVSEQPLGDMLKEEMSDMSKAFMGSVVSRPRRTSSSTRLSSTPHPKSRRSLDNEMYLEGLGRLHMTSSSPLLDRVSASPAASPSPCPERTAQASPVPSRHSFSGLPEQNACLYQRQTETQDKSELSNVDKQSLKDEKFEPPFRWNKTEQFEAEGLHPAGDMPGIDFAVATQSSRLISYDYPSAVQSQTGEQDEQELWELHMKERRQREEQRHNERQEALERERRELGKLEQERRMIEESLKMEMEEELEKSVQDQKDKSAHCENTLEKYMKIIQQRQEESNADKSSKKSGKECSLVDMMMPSDKDESSPGFSHEEPDDMW
chain 2: METAKDGEQSPSEASPSAQAGPENIPEPMSREEESQPLYHEETIDLGGDEFASEENEPTSEGSHNFGDKLNEHMMESVLISDSPNNSEGDVGDLGCLQDVGEPPRGATDHRLPSSTDKEVVDTLSNGSETDGDDTPRDISDMTPDSRASLKEDSTQEDVTSMPALENAATEEVGPKDSLAPREEQTSEVSSNQSSSKDEPLPVCTIFSQATATPSQPHLFLQDGFESQMVKSPSFSSTSETSAKTPPPMVQPSPSLSTFFGDTMSSNSLASDFFDSFTTSTFISVSNPNAGSPVPEKLSSLTAPVGEKSPDSTSPSYSTRMDRSESGVSRAPLDVPESPKPFSQIQAVFAGSDDPFATALSMSEMDRRNDAWLPSQATREVLMSVATQQYGTVFIDKENLTMPGLKFDNIQGDAVKDLMLRFLGEKAAAKRQVLNASSVEQSFVGLKQLISCRNWRAAVDLCGRLLTAHGQGYGKNGLPTSHTTDSLQLWFVRLALLVKLGLFQNAEMEFEPFGNLDQPDLYYEYYPHVYPGRRGSMVPFSMRILHAELQQYLGNPQESLDRLHRVKTVCSKILANLEQGLAEDGGLSSVTQESRQASVQLWRSRLGRVLYSMANCLLLMKDYVLAVDAYLTVIKYYPEQEPQLLSGIGRILLQIGDIKTAEKYFQDVEKVTQKLDGLQGKIMVLMNRAFLYLGQNNFAEAHKFFTEILRMDPTNAVANNNAAVCLLYLGKLKDSLRQLEAMVQQDPRHYLHESVLFNLTTMYELESSRSMQKKQSLLEAVASKEGDSFNTQCLKLA

Variants of: B1
Test: co-IP (IP: anti-Myc, immunoblot); IP: anti-Myc; 0.5% input; parent: 1

| Variant | ratio to parent |
| --- | --- |
| chain 1 A78T | 0.97 |
| chain 1 G137S | 0.91 |

Now from value to variant:

| ratio to parent | Variant |
| --- | --- |
| 0.39 | chain 1 S73F |
| 0.98 | chain 1 S435R |
